Results from patent publication US20180011102.

T1: purified CDC45 S386A, O75419
T1 chain: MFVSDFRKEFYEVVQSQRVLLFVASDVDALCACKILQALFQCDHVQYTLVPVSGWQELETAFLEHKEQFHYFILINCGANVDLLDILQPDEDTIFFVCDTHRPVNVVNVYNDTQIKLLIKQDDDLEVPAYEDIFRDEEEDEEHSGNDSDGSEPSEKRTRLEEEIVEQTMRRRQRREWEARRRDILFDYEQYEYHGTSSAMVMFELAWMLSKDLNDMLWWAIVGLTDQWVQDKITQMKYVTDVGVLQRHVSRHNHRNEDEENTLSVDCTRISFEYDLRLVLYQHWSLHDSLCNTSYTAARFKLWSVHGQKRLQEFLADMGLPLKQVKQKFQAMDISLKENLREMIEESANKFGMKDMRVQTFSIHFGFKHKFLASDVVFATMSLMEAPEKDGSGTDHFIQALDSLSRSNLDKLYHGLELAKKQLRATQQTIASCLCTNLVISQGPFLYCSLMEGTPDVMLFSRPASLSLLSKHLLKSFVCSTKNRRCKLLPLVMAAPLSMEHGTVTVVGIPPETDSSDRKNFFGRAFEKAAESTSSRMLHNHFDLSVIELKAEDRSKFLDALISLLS

T2: purified wild-type CDC45, O75419
T2 chain: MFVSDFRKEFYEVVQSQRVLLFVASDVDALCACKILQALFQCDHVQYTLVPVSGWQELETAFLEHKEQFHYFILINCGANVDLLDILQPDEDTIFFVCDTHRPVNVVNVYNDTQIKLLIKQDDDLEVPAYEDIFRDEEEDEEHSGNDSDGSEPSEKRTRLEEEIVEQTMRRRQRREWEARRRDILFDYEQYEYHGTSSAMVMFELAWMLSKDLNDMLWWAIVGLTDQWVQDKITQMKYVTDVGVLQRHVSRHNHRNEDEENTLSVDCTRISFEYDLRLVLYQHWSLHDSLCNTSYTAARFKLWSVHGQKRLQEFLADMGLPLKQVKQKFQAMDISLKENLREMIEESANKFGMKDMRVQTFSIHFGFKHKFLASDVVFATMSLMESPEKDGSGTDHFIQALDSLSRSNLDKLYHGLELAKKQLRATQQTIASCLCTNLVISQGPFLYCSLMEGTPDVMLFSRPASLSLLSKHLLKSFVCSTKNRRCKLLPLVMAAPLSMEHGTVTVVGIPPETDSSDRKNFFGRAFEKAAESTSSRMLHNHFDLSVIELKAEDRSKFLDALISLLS


Columns and labels:
[1] = biological target: SUMO-PDHK1 (wild type), bacterially purified, Q15118
SUMO-PDHK1 (wild type), bacterially purified, Q15118, sequence (Q15118 whole entry, looked up): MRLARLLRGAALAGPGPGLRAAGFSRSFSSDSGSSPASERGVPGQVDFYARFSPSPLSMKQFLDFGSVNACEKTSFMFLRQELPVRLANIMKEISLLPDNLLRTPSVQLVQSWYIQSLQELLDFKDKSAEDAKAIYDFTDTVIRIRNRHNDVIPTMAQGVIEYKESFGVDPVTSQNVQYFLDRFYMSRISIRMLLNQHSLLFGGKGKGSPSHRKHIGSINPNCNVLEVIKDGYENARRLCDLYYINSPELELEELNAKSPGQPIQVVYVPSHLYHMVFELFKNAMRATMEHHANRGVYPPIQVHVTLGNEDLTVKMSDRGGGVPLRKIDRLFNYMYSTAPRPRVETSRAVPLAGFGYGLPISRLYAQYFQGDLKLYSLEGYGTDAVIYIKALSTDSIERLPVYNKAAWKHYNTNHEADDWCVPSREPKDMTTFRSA

[2] = biological target: purified Beclin-1 S30A mutant, Q14457
purified Beclin-1 S30A mutant, Q14457, sequence (Q14457 whole entry S30A): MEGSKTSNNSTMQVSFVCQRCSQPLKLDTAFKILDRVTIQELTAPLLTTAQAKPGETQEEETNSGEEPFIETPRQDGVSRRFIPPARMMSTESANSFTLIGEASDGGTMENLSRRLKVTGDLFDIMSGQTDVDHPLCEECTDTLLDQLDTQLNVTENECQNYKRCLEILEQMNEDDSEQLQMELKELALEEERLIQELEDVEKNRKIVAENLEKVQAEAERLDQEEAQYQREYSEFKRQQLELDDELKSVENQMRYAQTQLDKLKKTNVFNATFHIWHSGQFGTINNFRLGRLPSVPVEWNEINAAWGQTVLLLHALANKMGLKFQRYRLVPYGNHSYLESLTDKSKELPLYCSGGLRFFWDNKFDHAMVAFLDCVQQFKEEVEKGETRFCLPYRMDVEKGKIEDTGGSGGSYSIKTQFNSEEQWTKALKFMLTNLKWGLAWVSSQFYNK

[3] = biological target: T1, purified CDC45 S386A, O75419
[4] = biological target: purified PDHK1 S337A, Q15118
purified PDHK1 S337A, Q15118, sequence (Q15118 whole entry S337A): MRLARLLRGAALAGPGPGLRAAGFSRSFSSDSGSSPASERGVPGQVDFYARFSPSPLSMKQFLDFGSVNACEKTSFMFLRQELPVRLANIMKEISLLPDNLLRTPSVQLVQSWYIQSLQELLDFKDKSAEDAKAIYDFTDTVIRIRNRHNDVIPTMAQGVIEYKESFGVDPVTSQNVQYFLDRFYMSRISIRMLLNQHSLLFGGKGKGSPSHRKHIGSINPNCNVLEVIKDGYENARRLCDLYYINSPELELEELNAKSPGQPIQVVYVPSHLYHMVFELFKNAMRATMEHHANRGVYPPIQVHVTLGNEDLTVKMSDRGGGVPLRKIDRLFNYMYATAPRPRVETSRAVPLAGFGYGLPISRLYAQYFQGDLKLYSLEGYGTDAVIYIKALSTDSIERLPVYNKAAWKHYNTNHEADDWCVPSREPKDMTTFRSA

[5] = biological target: purified PDHK1 T338A (pE-SUMO PDHK1 T338A), Q15118
purified PDHK1 T338A (pE-SUMO PDHK1 T338A), Q15118, sequence (Q15118 whole entry T338A): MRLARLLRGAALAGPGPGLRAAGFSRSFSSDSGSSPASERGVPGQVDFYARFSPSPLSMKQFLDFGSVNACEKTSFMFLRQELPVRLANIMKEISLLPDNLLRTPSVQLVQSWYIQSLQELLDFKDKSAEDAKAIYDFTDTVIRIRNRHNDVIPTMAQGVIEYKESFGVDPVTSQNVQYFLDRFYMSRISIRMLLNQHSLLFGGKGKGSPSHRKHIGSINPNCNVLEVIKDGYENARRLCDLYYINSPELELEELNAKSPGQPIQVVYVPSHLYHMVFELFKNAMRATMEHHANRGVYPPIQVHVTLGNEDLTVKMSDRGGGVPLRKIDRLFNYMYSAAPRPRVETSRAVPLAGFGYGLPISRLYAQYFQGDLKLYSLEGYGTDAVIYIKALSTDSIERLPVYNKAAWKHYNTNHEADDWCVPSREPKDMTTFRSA

[6] = biological target: purified wild-type Beclin-1, Q14457
purified wild-type Beclin-1, Q14457, sequence (Q14457 whole entry, looked up): as the sequence (Q14457 whole entry S30A) above, with A30S counted along it

[7] = biological target: T2, purified wild-type CDC45, O75419

Row | Protein | in vitro phosphorylation with [γ32P]-ATP, autoradiography and anti-phospho-PDHK1 T338 antibody [1] | in vitro phosphorylation with [γ32P]-ATP, autoradiography and Western blot [2] | in vitro phosphorylation with [γ32P]-ATP, autoradiography and Western blot [3] | in vitro phosphorylation with [γ32P]ATP, autoradiography [4] | in vitro phosphorylation with [γ32P]-ATP, autoradiography and anti-phospho-PDHK1 T338 antibody [5] | in vitro phosphorylation with [γ32P]-ATP, autoradiography and Western blot [6] | in vitro phosphorylation with [γ32P]-ATP, autoradiography and Western blot [7]
1 | His-PGK1 (wild type), bacterially purified, not phosphorylated (protein) MSLSNKLTLDKLDVKGKRVVMRVDFNVPMKNNQITNNQRIKAAVPSIKFCLDNGAKSVVLMSHLGRPDGVPMPDKYSLEPVAVELKSLLGKDVLFLKDCVGPEVEKACANPAAGSVILLENLRFHVEEEGKGKDASGNKVKAEPAKIEAFRASLSKLGDVYVNDAFGTAHRAHSSMVGVNLPQKAGGFLMKKELNYFAKALESPERPFLAILGGAKVADKIQLINNMLDKVNEMIIGGGMAFTFLKVLNNMEIGTSLFDEEGAKIVKDLMSKAEKNGVKITLPVDFVTADKFDENAKTGQATVASGIPAGWMGLDCGPESSKKYAEAVTRAKQIVWNGPVGVFEWEAFARGTKALMDEVVKATSRGCITIIGGGDTATCCAKWNTEDKVSHVSTGGGASLELLEGKVLPGVDALSNI | WT PGK1, but not a PGK1 T378P kinase-dead mutant, was able to phosphorylate WT PDHK1, but not PDHK1 T338A | Beclin-1 S30A mutant was largely resistant to phosphorylation by PGK1 | Purified wild-type PGK1 but not PGK1 kinase-dead (KD) mutant phosphorylated purified wild-type CDC45, but not CDC45 S386A | mutation of the adjacent PDHK1 S337A had no effect on PGK1-mediated PDHK1 phosphorylation | WT PGK1, but not a PGK1 T378P kinase-dead mutant, was able to phosphorylate WT PDHK1, but not PDHK1 T338A | Purified PGK1 phosphorylated purified wild-type Beclin-1 | Purified wild-type PGK1 but not PGK1 kinase-dead (KD) mutant phosphorylated purified wild-type CDC45, but not CDC45 S386A
2 | purified PGK1 T378P kinase-dead mutant (protein) MSLSNKLTLDKLDVKGKRVVMRVDFNVPMKNNQITNNQRIKAAVPSIKFCLDNGAKSVVLMSHLGRPDGVPMPDKYSLEPVAVELKSLLGKDVLFLKDCVGPEVEKACANPAAGSVILLENLRFHVEEEGKGKDASGNKVKAEPAKIEAFRASLSKLGDVYVNDAFGTAHRAHSSMVGVNLPQKAGGFLMKKELNYFAKALESPERPFLAILGGAKVADKIQLINNMLDKVNEMIIGGGMAFTFLKVLNNMEIGTSLFDEEGAKIVKDLMSKAEKNGVKITLPVDFVTADKFDENAKTGQATVASGIPAGWMGLDCGPESSKKYAEAVTRAKQIVWNGPVGVFEWEAFARGTKALMDEVVKATSRGCITIIGGGDTAPCCAKWNTEDKVSHVSTGGGASLELLEGKVLPGVDALSNI | WT PGK1, but not a PGK1 T378P kinase-dead mutant, was able to phosphorylate WT PDHK1, but not PDHK1 T338A |  |  |  |  |  | Purified wild-type PGK1 but not PGK1 kinase-dead (KD) mutant phosphorylated purified wild-type CDC45, but not CDC45 S386A
